According to publication PMC7323586 (Journal of molecular biology, 2020):

Biological target: the molecule itself
Assay: SEC

B1: Bacillus subtilis xanthine phosphoribosyltransferase (XPRT), hexahistidine tag removed (enzyme, UniProt P42085 1-194, looked up)
chain: MEALKRKIEEEGVVLSDQVLKVDSFLNHQIDPLLMQRIGDEFASRFAKDGITKIVTIESSGIAPAVMTGLKLGVPVVFARKHKSLTLTDNLLTASVYSFTKQTESQIAVSGTHLSDQDHVLIIDDFLANGQAAHGLVSIVKQAGASIAGIGIVIEKSFQPGRDELVKLGYRVESLARIQSLEEGKVSFVQEVHS
- stoichiometry N: 2
